Test results reported in the supplement of paper PMC9112550, “Optimization of the antimicrobial peptide Bac7 by deep mutational scanning” (BMC Biology, 2022).

Tested on: Escherichia coli TOP10
Test: shrunken log2 fold change of peptide-encoding DNA abundance (4.5 h post-induction vs induction); higher = less antimicrobial activity (less host growth inhibition)
Conditions: time post-induction: 4.5 h; library: site-saturation at positions 5, 18, 19, 20
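Further: peptides expressed intracellularly from a pBAD plasmid library in pooled LB shake-flask culture, induced with 0.3% L-arabinose, DNA abundance read by NGS, three biological replicates, DESeq2 with apeglm shrinkage.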

| Sequence | shrunken log2 fold change |
| --- | --- |
| RRIRVRPPRLPRPRPRPQKWPRP | 0.202 |
| RRIRRRPPRLPRPRPRPPQTPRP | 0.828 |
| RRIRRRPPRLPRPRPRPLIEPRP | 0.35 |
| RRIRPRPPRLPRPRPRPEDWPRP | 0.391 |
| RRIRIRPPRLPRPRPRPRTFPRP | -0.143 |
| RRIRRRPPRLPRPRPRPVHPPRP | 0.348 |
| RRIRTRPPRLPRPRPRPNDPPRP | -0.149 |
| RRIRWRPPRLPRPRPRPICCPRP | 0.149 |
| RRIRWRPPRLPRPRPRPALTPRP | 0.393 |
| RRIRCRPPRLPRPRPRPQFRPRP | -0.434 |
| RRIRSRPPRLPRPRPRPTNLPRP | -0.215 |
| RRIRWRPPRLPRPRPRPFYMPRP | -0.297 |
| RRIRFRPPRLPRPRPRPSESPRP | -0.0918 |
| RRIRKRPPRLPRPRPRPFLNPRP | 0.00977 |
| RRIRHRPPRLPRPRPRPTAHPRP | -0.173 |
| RRIRLRPPRLPRPRPRPFKDPRP | -0.023 |
| RRIRCRPPRLPRPRPRPQMPPRP | -0.0931 |
| RRIRYRPPRLPRPRPRPYEEPRP | -0.0354 |
| RRIRTRPPRLPRPRPRPMMPPRP | -0.0027 |
| RRIRVRPPRLPRPRPRPDNSPRP | -0.202 |
| RRIRGRPPRLPRPRPRPKVDPRP | 3.36 |
| RRIRYRPPRLPRPRPRPRTAPRP | -0.0512 |
| RRIRERPPRLPRPRPRPGFKPRP | -0.324 |
| RRIRCRPPRLPRPRPRPMFEPRP | -0.212 |
| RRIRYRPPRLPRPRPRPCLIPRP | -0.00819 |

| Sequence | shrunken log2 fold change |
| --- | --- |
| RRIRCRPPRLPRPRPRPEFGPRP | 0.241 |
| RRIRHRPPRLPRPRPRPVTRPRP | -0.00217 |
| RRIRERPPRLPRPRPRPYPGPRP | -0.379 |
| RRIRGRPPRLPRPRPRPLVDPRP | 1.1 |
| RRIRQRPPRLPRPRPRPMHDPRP | -0.0216 |
| RRIRRRPPRLPRPRPRPWPSPRP | 0.0392 |
| RRIRRRPPRLPRPRPRPTCTPRP | 0.165 |
| RRIRCRPPRLPRPRPRPHMRPRP | 0.0898 |
| RRIRGRPPRLPRPRPRPCVTPRP | 1.34 |
| RRIRTRPPRLPRPRPRPCELPRP | -0.271 |
| RRIRRRPPRLPRPRPRPGTKPRP | 0.0056 |
| RRIRNRPPRLPRPRPRPYHFPRP | -0.309 |
| RRIRRRPPRLPRPRPRPQMMPRP | -0.232 |
| RRIRLRPPRLPRPRPRPMCFPRP | -0.332 |
| RRIRVRPPRLPRPRPRPEAIPRP | -0.0125 |
| RRIRIRPPRLPRPRPRPDWVPRP | 0.135 |
| RRIRLRPPRLPRPRPRPWHHPRP | -0.0279 |
| RRIRQRPPRLPRPRPRPQHFPRP | 0.14 |
| RRIRNRPPRLPRPRPRPFWPPRP | 0.226 |
| RRIRMRPPRLPRPRPRPPERPRP | 1.98 |
| RRIRLRPPRLPRPRPRPQYKPRP | -1.05 |
| RRIRWRPPRLPRPRPRPNPHPRP | -0.0669 |
| RRIRFRPPRLPRPRPRPQMLPRP | -0.179 |
| RRIRQRPPRLPRPRPRPGGRPRP | 0.456 |
| RRIRTRPPRLPRPRPRPEAPPRP | 0.139 |

| Sequence | shrunken log2 fold change |
| --- | --- |
| RRIRGRPPRLPRPRPRPGLFPRP | 1.01 |
| RRIRDRPPRLPRPRPRPSDVPRP | -0.022 |
| RRIRGRPPRLPRPRPRPGMRPRP | 1.68 |
| RRIRNRPPRLPRPRPRPSVPPRP | -0.344 |
| RRIRIRPPRLPRPRPRPWNCPRP | -0.000121 |
| RRIRIRPPRLPRPRPRPGSEPRP | -0.187 |
| RRIRKRPPRLPRPRPRPMDYPRP | 0.0283 |
| RRIRKRPPRLPRPRPRPKWPPRP | -0.031 |
| RRIRGRPPRLPRPRPRPVVDPRP | 0.873 |
| RRIRIRPPRLPRPRPRPRDRPRP | -0.0241 |
| RRIRERPPRLPRPRPRPQQVPRP | -0.0841 |
| RRIRARPPRLPRPRPRPPSCPRP | 0.503 |
| RRIRHRPPRLPRPRPRPKVMPRP | 0.0163 |
| RRIRDRPPRLPRPRPRPKQMPRP | 0.113 |
| RRIRCRPPRLPRPRPRPAIPPRP | -0.246 |
| RRIRRRPPRLPRPRPRPANHPRP | 0.097 |
| RRIRSRPPRLPRPRPRPCHMPRP | -0.233 |
| RRIRLRPPRLPRPRPRPPASPRP | 0.561 |
| RRIRIRPPRLPRPRPRPNNFPRP | -0.388 |
| RRIRDRPPRLPRPRPRPTSHPRP | -0.146 |
| RRIRTRPPRLPRPRPRPHKDPRP | -0.973 |
| RRIRKRPPRLPRPRPRPWYTPRP | -0.177 |
| RRIRARPPRLPRPRPRPSVIPRP | -0.0459 |
| RRIRMRPPRLPRPRPRPMDIPRP | 0.468 |
| RRIRGRPPRLPRPRPRPSCFPRP | 0.504 |

| Sequence | shrunken log2 fold change |
| --- | --- |
| RRIRVRPPRLPRPRPRPISVPRP | -0.131 |
| RRIRIRPPRLPRPRPRPIKDPRP | -0.467 |
| RRIRIRPPRLPRPRPRPWKMPRP | -1.13 |
| RRIRTRPPRLPRPRPRPFRIPRP | -0.0114 |
| RRIRMRPPRLPRPRPRPSNCPRP | -0.376 |
| RRIRMRPPRLPRPRPRPLCWPRP | 1.15 |
| RRIRPRPPRLPRPRPRPSSAPRP | 0.0846 |
| RRIRQRPPRLPRPRPRPRARPRP | 0.579 |
| RRIRDRPPRLPRPRPRPKERPRP | -0.0193 |
| RRIRFRPPRLPRPRPRPNDEPRP | -0.648 |
| RRIRERPPRLPRPRPRPLCHPRP | -0.0201 |
| RRIRIRPPRLPRPRPRPNGNPRP | -0.365 |
| RRIRHRPPRLPRPRPRPVHWPRP | 0.0039 |
| RRIRIRPPRLPRPRPRPQPCPRP | -0.0143 |
| RRIRERPPRLPRPRPRPPNGPRP | 0.203 |
| RRIRARPPRLPRPRPRPAWGPRP | 0.616 |
| RRIRHRPPRLPRPRPRPDWGPRP | 0.0592 |
| RRIRVRPPRLPRPRPRPVRQPRP | -0.0557 |
| RRIRTRPPRLPRPRPRPAATPRP | 0.247 |
| RRIRKRPPRLPRPRPRPSIQPRP | -0.149 |
| RRIRHRPPRLPRPRPRPKMIPRP | -0.254 |
| RRIRQRPPRLPRPRPRPQHKPRP | -0.205 |
| RRIRWRPPRLPRPRPRPQATPRP | 0.381 |
| RRIRSRPPRLPRPRPRPAPQPRP | 0.461 |
| RRIRWRPPRLPRPRPRPASFPRP | -0.0603 |

| Sequence | shrunken log2 fold change |
| --- | --- |
| RRIRPRPPRLPRPRPRPIISPRP | -0.189 |
| RRIRARPPRLPRPRPRPGMFPRP | 0.295 |
| RRIRRRPPRLPRPRPRPIQMPRP | 0.272 |
| RRIRGRPPRLPRPRPRPWVEPRP | 0.129 |
| RRIRYRPPRLPRPRPRPKYCPRP | 0.0325 |
| RRIRARPPRLPRPRPRPLPTPRP | 0.771 |
| RRIRCRPPRLPRPRPRPMWYPRP | -0.414 |
| RRIRLRPPRLPRPRPRPTNWPRP | 0.0175 |
| RRIRRRPPRLPRPRPRPLGIPRP | 0.984 |
| RRIRPRPPRLPRPRPRPQWWPRP | 0.111 |
| RRIRMRPPRLPRPRPRPSWQPRP | 0.305 |
| RRIRKRPPRLPRPRPRPNIYPRP | -0.275 |
| RRIRPRPPRLPRPRPRPCDYPRP | 0.218 |
| RRIRNRPPRLPRPRPRPPCPPRP | 0.309 |
| RRIRWRPPRLPRPRPRPDWFPRP | 0.147 |
| RRIRARPPRLPRPRPRPCMCPRP | 0.118 |
| RRIRFRPPRLPRPRPRPPKSPRP | 0.234 |
| RRIRIRPPRLPRPRPRPGMGPRP | 0.132 |
| RRIRQRPPRLPRPRPRPHPWPRP | 0.0242 |
| RRIRYRPPRLPRPRPRPDREPRP | -0.15 |
| RRIRFRPPRLPRPRPRPTKSPRP | 0.106 |
| RRIRERPPRLPRPRPRPREVPRP | 0.13 |
| RRIRSRPPRLPRPRPRPPYYPRP | -0.174 |
| RRIRARPPRLPRPRPRPDRQPRP | 0.0329 |
| RRIRWRPPRLPRPRPRPGYGPRP | -0.0305 |
